Common to all, as to experiment: fluorescence polarization
For data set [1], the target named is T1, NS3h WT (T7 Shuffle) (dengue virus 4, UniProt P09866 1646-2092).
The target of data set [2] is NS3h WT (dengue virus 4, UniProt P09866 1646-2092).
Data set [3] concerns the target T1, NS3h WT (T7 Shuffle). This is another data set of the same source.

Like-named read-outs stand apart in the source and are kept apart here.

T1 sequence (P09866 1646-2092): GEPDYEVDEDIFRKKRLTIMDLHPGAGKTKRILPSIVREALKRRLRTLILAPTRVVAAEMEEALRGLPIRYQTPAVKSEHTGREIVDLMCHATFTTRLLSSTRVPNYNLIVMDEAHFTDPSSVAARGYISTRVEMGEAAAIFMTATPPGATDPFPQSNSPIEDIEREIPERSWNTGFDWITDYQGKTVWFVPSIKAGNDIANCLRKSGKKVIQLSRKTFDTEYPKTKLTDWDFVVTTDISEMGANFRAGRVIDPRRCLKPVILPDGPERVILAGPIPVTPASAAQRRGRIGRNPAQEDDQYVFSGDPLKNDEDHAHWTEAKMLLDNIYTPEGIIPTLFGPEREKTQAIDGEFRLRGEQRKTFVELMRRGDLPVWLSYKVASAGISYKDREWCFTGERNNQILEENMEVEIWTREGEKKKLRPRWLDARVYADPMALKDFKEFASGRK
Chain of NS3h WT (P09866 1646-2092): as above

B1: ppAGUAA Alexa-488 RNA oligo (ssRNA)
RNA: AGUAA
modifications: 5'-diphosphate (pp (so in the source))
With B1, the values for the dissociation constant Kd in data set [1], in data set [2] and in data set [3] were 4.5 ± 1.5 µM, 1.9 ± 0.8 µM and 3.4 ± 1.4 µM, respectively.

These data come from paper doi:10.1101/842088.
